Reference: paper PMC8528806, “Enzyme promiscuity in natural environments: alkaline phosphatase in the ocean” (The ISME Journal, 2021)

T1: PhoA (APase; MADE1013045) (Alteromonas mediterranea, UniProt F2G8N3)
T1 construct: gene MADE_1013045; full-length 1467-bp synthetic gene, pETM-14, N-terminal His6-PreScission 3C, tag cleaved, expressed in E. coli BL21(DE3)
T1 sequence (F2G8N3 1-488): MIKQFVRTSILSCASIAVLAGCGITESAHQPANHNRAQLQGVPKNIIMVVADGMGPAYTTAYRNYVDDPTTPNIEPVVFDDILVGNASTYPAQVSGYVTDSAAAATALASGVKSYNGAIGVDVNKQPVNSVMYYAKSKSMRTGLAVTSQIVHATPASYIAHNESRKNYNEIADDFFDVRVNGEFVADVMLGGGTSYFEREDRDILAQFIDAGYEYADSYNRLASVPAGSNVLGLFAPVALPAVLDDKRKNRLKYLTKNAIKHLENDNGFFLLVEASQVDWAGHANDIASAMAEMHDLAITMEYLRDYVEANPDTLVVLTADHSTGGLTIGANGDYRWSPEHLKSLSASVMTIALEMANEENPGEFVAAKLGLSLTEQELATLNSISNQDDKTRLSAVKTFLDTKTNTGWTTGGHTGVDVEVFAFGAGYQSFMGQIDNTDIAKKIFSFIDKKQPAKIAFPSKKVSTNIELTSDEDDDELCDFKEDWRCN

B1: PhoA (APase; MADE1013045) (Alteromonas mediterranea DE) (protein)
chain: T1 sequence (F2G8N3 1-488)
notes: full-length 1467-bp synthetic gene, pETM-14, N-terminal His6-PreScission 3C, tag cleaved, expressed in E. coli BL21(DE3)

Assays:
[1] = molecular target: T1, PhoA (APase; MADE1013045); assay: p-nitrophenol release, absorbance […] nm, Michaelis-Menten fit; format: biochemical; conditions: read-out: KM (μmol l^-1); 100 mM Tris pH 8.2, 24 °C, 100 µM MgCl2; 10 nM enzyme
purified protein [2] = substrate: O=[N+]([O-])c1ccc(OP(=O)(O)O)cc1; assay: purified protein; format: biochemical, Alteromonas mediterranea; conditions: 100 mM Tris pH 8.2, 24 °C, 100 µM MgCl2, 1 nM enzyme, text rounds KM to 90 µM
purified protein [3] = substrate: O=[N+]([O-])c1ccc(OP(=O)(O)Oc2ccc([N+](=O)[O-])cc2)cc1; assay: purified protein; format: biochemical, Alteromonas mediterranea; conditions: 100 mM Tris pH 8.2, 24 °C, 100 µM MgCl2, 10 nM enzyme

Molecule	Km [1] [µM]	Km (purified protein [2]) [µM]	kcat (purified protein [2]) [s⁻¹]	kcat/Km (purified protein [2]) [M⁻¹ s⁻¹]	Km (purified protein [3]) [µM]	kcat (purified protein [3]) [s⁻¹]	kcat/Km (purified protein [3]) [M⁻¹ s⁻¹]
COP(=O)(OC)Oc1ccc([N+](=O)[O-])cc1 [Paraoxon-methyl]	0.015	–	–	–	–	–	–
B1	–	94 ± 35	0.5 ± 0.03	4800 ± 800	0.3 ± 0.1	0.017 ± 0.001	55000 ± 8000
